Data taken from publication PMC5443842, “The Effect of Two Amino acid Residue Substitutions via RNA Editing on Dark-operative Protochlorophyllide Oxidoreductase in the Black Pine Chloroplasts” (Scientific Reports, 2017).

Target: T1, Strep-ChlN from Leptolyngbya boryana, expressed in E. coli (Leptolyngbya boryana, UniProt Q04607 1-467)
T1 construct: ChlN, subunit of DPOR (NB protein), Leptolyngbya boryana; Co-expressed with each ChlB variant; To my knowledge pASK-IBA5plus adds an N-terminal Strep-tag II; source: E. coli (chlN-chlB fragments in pASK-IBA5plus), in soluble fraction
T1 sequence (Q04607 whole entry, the tested form may be a part): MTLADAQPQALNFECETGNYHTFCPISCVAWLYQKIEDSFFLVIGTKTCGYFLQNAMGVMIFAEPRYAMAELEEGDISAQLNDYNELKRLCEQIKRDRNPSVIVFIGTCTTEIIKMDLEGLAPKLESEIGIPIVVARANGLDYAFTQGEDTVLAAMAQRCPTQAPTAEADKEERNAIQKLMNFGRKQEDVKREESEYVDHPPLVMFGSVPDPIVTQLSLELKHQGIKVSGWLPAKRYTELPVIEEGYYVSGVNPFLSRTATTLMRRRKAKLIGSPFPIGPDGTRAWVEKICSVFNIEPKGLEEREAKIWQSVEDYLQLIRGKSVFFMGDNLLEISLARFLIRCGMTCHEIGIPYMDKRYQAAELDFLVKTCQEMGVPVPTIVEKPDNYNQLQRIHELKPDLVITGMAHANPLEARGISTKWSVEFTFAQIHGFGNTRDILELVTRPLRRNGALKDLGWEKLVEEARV
Assay: pull-down; ChlB variants co-expressed with Strep-ChlN in E. coli; soluble fractions on a Strep-Tactin column in an anaerobic chamber; affinity-purified proteins on SDS-PAGE stained with Coomassie Brilliant Blue, yields quantitated
Settings: partners not purified

B1: wild-type ChlB from Leptolyngbya boryana, expressed in E. coli (natural protein, UniProt P95463 1-508, looked up)
chain: MKLAYWMYAGPAHIGTLRIASSFKNVHAIMHAPLGDDYFNVMRSMLERERDYTPVTTSVVDRHVLARGSQEKVVDNITRKDAEEHPDLIVLTPTCTSSILQEDLQNFVERAQLEAKGDVMLADVNHYRVNELQAADRTLQQIVQFYIAKARKQGNLVTEKTEKPSVNIFGMTTLGFHNNHDATELKKLMSDLGIEVNAIVPAGASVHELKSLPRAWFNLVPYRETGLLAAEFLQQEFNMPYVDITPIGIVETARCIRKIQQVINAQGANVDYEPFIDQQTRFVSQAAWFSRSIDCQNLTGKKAVVFGDNTHAAALTKILAREMGIHVLLAGTYCKYDEAWFREQVSEYCDDVLVSDDNGQIADAIARLEPAAIFGTQMERHVGKRLDIPCGVIAAPIHIQNFPVGYKPFVGYEGSNQIVDLIYNSFTLGMEDHLLEIFGGHDTKEVITKSVSADSDLNWSKDGLAELNRIPGFVRGKVKRNTEKFARDRNITQITAEVLYAAKEAVGA
notes: ChlB, subunit of DPOR (NB protein), Leptolyngbya boryana; also called WT ChlB; WT control; source: E. coli (pHANB2), in soluble fraction
With B1 the “stoichiometry N” value was ~1.
